Assay [1] concerns the target T1, elastase (purified from human sputum) (human, UniProt P08246 30-267).
T1 construct: elastase, human, purified from sputum; the discussion speaks of it as a component of neutrophil azurophil granules (neutrophil elastase); source: bought: Molecular Innovations, purified from human sputum (SPR); bought: Elastin Products (enzyme assays)
T1 sequence (looked up): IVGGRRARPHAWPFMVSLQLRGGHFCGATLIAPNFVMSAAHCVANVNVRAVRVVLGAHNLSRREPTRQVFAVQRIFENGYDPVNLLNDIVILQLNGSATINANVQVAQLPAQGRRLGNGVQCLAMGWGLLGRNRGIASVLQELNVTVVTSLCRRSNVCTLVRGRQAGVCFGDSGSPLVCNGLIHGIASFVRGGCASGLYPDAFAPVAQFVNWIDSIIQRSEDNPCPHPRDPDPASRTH
The assay can be described thus: SPR; kinetics: rSimukunin immobilised on a CM5 chip by amine coupling (475.3 RU); FXa 3.1-50 nM or elastase 0.45-3.75 nM injected for 180 s at 30 µl/minute, 25°C; HBS-P (10 mM Hepes pH 7.4, 150 mM NaCl, 0.005% P20); global fit to a 1:1 Langmuir model. The note with it: both partners purified.

The target in a further assay is skin β-tryptase (human, UniProt Q15661 19-275). Description: cell-based or functional assay.
skin β-tryptase, sequence (Q15661 19-275): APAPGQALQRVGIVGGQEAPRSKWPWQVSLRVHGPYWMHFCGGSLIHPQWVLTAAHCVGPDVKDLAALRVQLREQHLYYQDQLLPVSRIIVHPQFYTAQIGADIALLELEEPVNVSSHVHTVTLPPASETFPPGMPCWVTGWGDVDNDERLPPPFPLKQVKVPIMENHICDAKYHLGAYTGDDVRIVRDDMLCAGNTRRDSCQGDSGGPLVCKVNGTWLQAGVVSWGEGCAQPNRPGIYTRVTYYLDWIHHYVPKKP
For assay [2], the target named is activated coagulation factor XI (FXIa) (human). Description: cell-based or functional assay.
activated coagulation factor XI (FXIa) (human), sequence (chain, as listed by the source, chain 1 of 2): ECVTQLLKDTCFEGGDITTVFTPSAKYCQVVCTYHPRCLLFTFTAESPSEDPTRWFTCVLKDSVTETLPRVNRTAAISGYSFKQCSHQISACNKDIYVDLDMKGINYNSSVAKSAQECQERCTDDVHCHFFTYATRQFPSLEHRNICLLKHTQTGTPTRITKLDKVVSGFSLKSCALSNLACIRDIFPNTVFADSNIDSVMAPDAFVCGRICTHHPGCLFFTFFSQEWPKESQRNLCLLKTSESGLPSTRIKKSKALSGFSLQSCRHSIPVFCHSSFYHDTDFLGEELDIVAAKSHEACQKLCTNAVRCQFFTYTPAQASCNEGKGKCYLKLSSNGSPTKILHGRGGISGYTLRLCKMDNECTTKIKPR
activated coagulation factor XI (FXIa) (human), sequence (chain, as listed by the source, chain 2 of 2): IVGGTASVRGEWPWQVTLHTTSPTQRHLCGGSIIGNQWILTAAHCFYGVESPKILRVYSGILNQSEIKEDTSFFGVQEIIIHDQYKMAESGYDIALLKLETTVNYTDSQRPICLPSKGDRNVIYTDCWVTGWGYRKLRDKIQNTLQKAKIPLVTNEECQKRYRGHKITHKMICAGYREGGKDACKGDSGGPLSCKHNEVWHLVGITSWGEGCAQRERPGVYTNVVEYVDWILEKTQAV
For another assay, the target named is plasmin (human). Description: cell-based or functional assay.
plasmin (human), sequence (P00747 20-580, chain 1 of 2): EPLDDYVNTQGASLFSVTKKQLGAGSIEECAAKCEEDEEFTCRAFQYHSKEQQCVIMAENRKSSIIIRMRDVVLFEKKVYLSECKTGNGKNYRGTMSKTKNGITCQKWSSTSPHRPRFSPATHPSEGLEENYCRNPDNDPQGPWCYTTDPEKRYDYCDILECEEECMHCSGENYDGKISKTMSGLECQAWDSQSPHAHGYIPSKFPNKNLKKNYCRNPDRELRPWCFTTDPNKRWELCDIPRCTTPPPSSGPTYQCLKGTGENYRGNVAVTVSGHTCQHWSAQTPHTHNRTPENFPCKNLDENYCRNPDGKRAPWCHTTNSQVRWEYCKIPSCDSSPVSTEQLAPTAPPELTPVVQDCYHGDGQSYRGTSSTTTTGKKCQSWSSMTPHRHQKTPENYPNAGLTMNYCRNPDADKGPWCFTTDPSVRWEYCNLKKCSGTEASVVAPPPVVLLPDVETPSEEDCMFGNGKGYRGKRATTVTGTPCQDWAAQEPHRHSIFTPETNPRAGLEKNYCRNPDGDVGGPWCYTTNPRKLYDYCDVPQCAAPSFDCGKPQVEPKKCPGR
plasmin (human), sequence (P00747 581-810, chain 2 of 2): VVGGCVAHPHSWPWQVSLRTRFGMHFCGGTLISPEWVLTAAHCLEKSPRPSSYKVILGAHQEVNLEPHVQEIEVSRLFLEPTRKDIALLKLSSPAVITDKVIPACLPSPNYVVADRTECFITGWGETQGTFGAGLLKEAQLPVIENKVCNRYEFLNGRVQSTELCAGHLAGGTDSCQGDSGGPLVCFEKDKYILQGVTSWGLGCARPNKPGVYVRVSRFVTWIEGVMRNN
For assay [3], the target named is T1, elastase (purified from human sputum). Description: cell-based or functional assay.
In assay [4] the target is trypsin (sequencing grade) (human, UniProt P07477 16-247). The assay can be described thus: cell-based or functional assay.
trypsin (sequencing grade), sequence (P07477 16-247): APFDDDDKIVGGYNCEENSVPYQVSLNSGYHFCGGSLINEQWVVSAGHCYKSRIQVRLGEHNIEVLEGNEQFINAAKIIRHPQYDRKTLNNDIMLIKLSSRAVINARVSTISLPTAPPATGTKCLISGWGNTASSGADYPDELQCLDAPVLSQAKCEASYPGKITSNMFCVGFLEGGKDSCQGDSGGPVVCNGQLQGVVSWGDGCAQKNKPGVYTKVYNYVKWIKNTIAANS
In assay [5] the target is T2, cathepsin G (human, UniProt P08311 21-244).
T2 sequence (looked up): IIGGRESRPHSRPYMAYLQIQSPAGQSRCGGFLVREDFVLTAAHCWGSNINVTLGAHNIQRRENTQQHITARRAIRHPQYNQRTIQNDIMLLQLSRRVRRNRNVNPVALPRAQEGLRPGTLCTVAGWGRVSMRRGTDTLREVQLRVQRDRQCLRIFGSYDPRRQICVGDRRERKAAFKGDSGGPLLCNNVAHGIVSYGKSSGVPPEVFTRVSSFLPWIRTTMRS
Description: cell-based or functional assay.

The target in a further assay is kallikrein (human, UniProt P03952 20-638). Description: cell-based or functional assay.
kallikrein, sequence (P03952 20-638): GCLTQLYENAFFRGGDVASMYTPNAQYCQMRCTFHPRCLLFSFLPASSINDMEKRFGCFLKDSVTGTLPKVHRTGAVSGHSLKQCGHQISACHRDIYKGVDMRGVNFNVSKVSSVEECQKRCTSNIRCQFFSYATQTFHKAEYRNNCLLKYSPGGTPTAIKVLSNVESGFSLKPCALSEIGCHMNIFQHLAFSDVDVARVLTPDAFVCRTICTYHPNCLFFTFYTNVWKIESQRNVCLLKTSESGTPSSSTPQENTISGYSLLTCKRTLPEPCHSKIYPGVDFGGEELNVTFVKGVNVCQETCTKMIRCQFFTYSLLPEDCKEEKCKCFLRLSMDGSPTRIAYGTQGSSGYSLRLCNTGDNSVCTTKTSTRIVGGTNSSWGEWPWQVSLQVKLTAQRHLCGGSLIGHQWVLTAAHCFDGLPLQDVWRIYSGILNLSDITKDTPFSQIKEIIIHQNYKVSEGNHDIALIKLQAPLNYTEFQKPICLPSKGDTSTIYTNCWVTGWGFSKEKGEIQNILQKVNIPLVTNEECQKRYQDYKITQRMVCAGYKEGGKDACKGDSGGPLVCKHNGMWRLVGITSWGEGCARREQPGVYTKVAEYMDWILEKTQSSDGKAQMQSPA
Assay [6] concerns the target T1, elastase (purified from human sputum). Description: enzyme inhibition assay (Ki from IC50 by Cheng and Prusoff); rSimukunin titrated against a constant concentration of enzyme, pre-incubated 5 min, fluorogenic peptidyl substrate 250 µM, 30°C; Ki calculated from the IC50 and the substrate's Km; estimated. The settings on record: both partners purified.
Assay [7] has as its target T2, cathepsin G. Described as above. The note with it: both partners purified.

B1: recombinant Simukunin (rSV-66) (natural protein, Simulium vittatum, UniProt B5M0W4 20-102, looked up)
chain: QENVCNLPVDEGVCRALFKRFYYEPATDSCKEFYYGGCEGNGNRFKSKKECILKCQKNKQLIKTRKRKPKKTTKPPIPIISLD
notes: SV-66 (Simukunin), Kunitz family salivary protein of the black fly Simulium vittatum; full-length ORF without signal peptide was cloned; numbers count on: the mature protein; pET-30 Ek/LIC vector; The purified protein ran as a doublet; also called rSimukunin; WT rSimukunin; source: E. coli BL21 (DE3), purified (Ni-NTA, RP-HPLC)
Turning to B1, in assay [1], the Kd (usually the constant that tells how readily two partners part at equilibrium) stood at 0.4 nM, the koff (usually the first-order rate constant of dissociation) was 0.0173 s⁻¹ and the kon (usually the rate constant with which the complex forms) was found to be 4.3e+07 M⁻¹ s⁻¹. In addition, in the assay with skin β-tryptase, the “IC50 of inhibition of enzyme activity (fluorogenic peptidyl substrate, 250 µM); β-tryptase 0.01 nM” value is 66.8 nM. In [2], the “IC50 of inhibition of enzyme activity (fluorogenic peptidyl substrate, 250 µM); Factor XIa 0.06 nM” value amounted to 56.7 nM. Besides, the “IC50 of inhibition of enzyme activity (fluorogenic peptidyl substrate, 250 µM); plasmin 0.2 nM” value with plasmin turned out to be 32.2 nM. For the same molecule, in assay [3], the “IC50 of inhibition of enzyme activity (fluorogenic peptidyl substrate, 250 µM); elastase 0.18 nM” value was found to be 4.9 nM. In addition, the “IC50 of inhibition of enzyme activity (fluorogenic peptidyl substrate, 250 µM); trypsin 0.1 nM” value in assay [4] came out at 379 nM. Further, the “IC50 of inhibition of enzyme activity (fluorogenic peptidyl substrate, 250 µM); cathepsin G 6.7 nM” value with cathepsin G [5] came out at 217 nM. In addition, the “IC50 of inhibition of enzyme activity (fluorogenic peptidyl substrate, 250 µM); kallikrein 0.08 nM” value with kallikrein came out at 91.8 nM. The Ki (as a rule, a measure of affinity in units of concentration, obtained from inhibition or displacement) in assay [6] was approximately 0.65 nM. For the same molecule, the Ki with cathepsin G [7] is 100 nM.
